Reference: patent US20050164345A1, “Synthesis of human procollagens and collagens in recombinant DNA systems” (priority 1992, published 2005)

Tested on: prolyl 4-hydroxylase
Test: prolyl 4-hydroxylase activity of Triton X-100 extracts from insect cells (hydroxylation-coupled decarboxylation of 2-oxo[1-14C]glutarate)
Format: biochemical
Settings: Triton extract, 72 h after infection
Description: The 0.2% Triton X-100 extracts of cell homogenates were analyzed for prolyl 4-hydroxylase activity with an assay based on the hydroxylation-coupled decarboxylation of 2-oxo [1-^14C] glutarate (Kivirikko et al., Methods EnzVmol. 82: 245-304 (1982)). As reported previously (Veijola et al., J. Biol. Chem. 269: 26746-26753 (1994)), a significant level of prolyl 4-hydroxylase activity was found in both Sf9 and High Five cells, the activity in High Five cells being distinctly higher than that in Sf9 cells (Table I). […]
Insect cells (Sf9 or High Five, Invitrogen) were cultured in TNM-FH medium (Sigma) supplemented with 10% fetal bovine serum (BioClear) or in a serum-free HyQ CCM3 medium (HyClone) either as monolayers or in suspension in shaker flasks at 27° C. […] The remaining cell pellet that was insoluble in the homogenization buffer was further solubilized in 1% SDS and analyzed by SDS-PAGE^1. […] Aliquots of the supernatants of the cell homogenates and the concentrated cell culture medium were analyzed by denaturing SDS-PAGE, followed by staining with Coomassie Brilliant Blue or Western blotting with an antibody to the N-propeptide of human type III procollagen.

B1: Proα1 (III) chains: Triton X-100 extract of insect cells expressing only proα1 chains of human type III procollagen (protein, UniProt P02461 24-1466, looked up)
pro-form: QQEAVEGGCSHLGQSYADRDVWKPEPCQICVCDSGSVLCDDIICDDQELDCPNPEIPFGECCAVCPQPPTAPTRPPNGQGPQGPKGDPGPPGIPGRNGDPGIPGQPGSPGSPGPPGICESCPTGPQNYSPQYDSYDVKSGVAVGGLAGYPGPAGPPGPPGPPGTSGHPGSPGSPGYQGPPGEPGQAGPSGPPGPPGAIGPSGPAGKDGESGRPGRPGERGLPGPPGIKGPAGIPGFPGMKGHRGFDGRNGEKGETGAPGLKGENGLPGENGAPGPMGPRGAPGERGRPGLPGAAGARGNDGARGSDGQPGPPGPPGTAGFPGSPGAKGEVGPAGSPGSNGAPGQRGEPGPQGHAGAQGPPGPPGINGSPGGKGEMGPAGIPGAPGLMGARGPPGPAGANGAPGLRGGAGEPGKNGAKGEPGPRGERGEAGIPGVPGAKGEDGKDGSPGEPGANGLPGAAGERGAPGFRGPAGPNGIPGEKGPAGERGAPGPAGPRGAAGEPGRDGVPGGPGMRGMPGSPGGPGSDGKPGPPGSQGESGRPGPPGPSGPRGQPGVMGFPGPKGNDGAPGKNGERGGPGGPGPQGPPGKNGETGPQGPPGPTGPGGDKGDTGPPGPQGLQGLPGTGGPPGENGKPGEPGPKGDAGAPGAPGGKGDAGAPGERGPPGLAGAPGLRGGAGPPGPEGGKGAAGPPGPPGAAGTPGLQGMPGERGGLGSPGPKGDKGEPGGPGADGVPGKDGPRGPTGPIGPPGPAGQPGDKGEGGAPGLPGIAGPRGSPGERGETGPPGPAGFPGAPGQNGEPGGKGERGAPGEKGEGGPPGVAGPPGGSGPAGPPGPQGVKGERGSPGGPGAAGFPGARGLPGPPGSNGNPGPPGPSGSPGKDGPPGPAGNTGAPGSPGVSGPKGDAGQPGEKGSPGAQGPPGAPGPLGIAGITGARGLAGPPGMPGPRGSPGPQGVKGESGKPGANGLSGERGPPGPQGLPGLAGTAGEPGRDGNPGSDGLPGRDGSPGGKGDRGENGSPGAPGAPGHPGPPGPVGPAGKSGDRGESGPAGPAGAPGPAGSRGAPGPQGPRGDKGETGERGAAGIKGHRGFPGNPGAPGSPGPAGQQGAIGSPGPAGPRGPVGPSGPPGKDGTSGHPGPIGPPGPRGNRGERGSEGSPGHPGQPGPPGPPGAPGPCCGGVGAAAIAGIGGEKAGGFAPYYGDEPMDFKINTDEIMTSLKSVNGQIESLISPDGSRKNPARNCRDLKFCHPELKSGEYWVDPNQGCKLDAIKVFCNMETGETCISANPLNVPRKHWWTDSSAEKKHVWFGESMDGGFQFSYGNPELPEDVLDVHLAFLRLLSSRASQNITYHCKNSIAYMDQASGNVKKALKLMGSNEGEFKAEGNSKFTYTVLEDGCTKHTGEWSKTVFEYRTRKAVRLPIVDIAPYDIGGPDQEFGVDVGPVCFL
modifications: pro-form
notes: Triton X-100 extract of insect cells expressing only proα1 chains of human type III procollagen
High Five cells, mean of duplicates in three experiments
  Prolyl 4-hydroxylase activity: 500 dpm/10 μl
Sf9 cells, mean of duplicates in one experiment
  Prolyl 4-hydroxylase activity: 60 dpm/10 μl
